Test: soluble on expression in E. coli; label from the status in PepcDB or PDB records

Sequence	soluble on expression in E. coli
MALSGIYKLDDGKPYLNNCFPARNLLRVPEEGQGHWLVVQKGNLKKKPKGLVGAQAERRESLKATSFEFKGKKESRRENQVDLPGHILDQAFLLKHHCVRKPSDLCTINAKENDFKHFHSVIYINASENLLPLEAFHTFPALKELDLAFNGIKTIYVKYGDFKLLEFLDLSFNSLTVEAICDLGILPHLRVLLLTGNGLTSLPPNLAVAEQEASVTSLTSKRYILRFPALETLMLDDNRLSNPSCFASLAGLRRLKKLSLDENRIIRIPYLQQVQLYDESVDWNGGRGSPHKEPQFMLQSKPRMLEDSDEQLDYTVLPMKKDVDRTGVPPLLKSFLQERLGIHLIRRKIVKPKHHVLMSRKESWKVKSEIPKVPKQPLVLHHPRMRTTKSPSKDMLEPEAELAEDLPTTKSTSVESEMPTENLEGHSPSCRTFVPLPPICSNSTVHSEETLSHLSDTTVRLSPERPSDEDSKSTESIFLTQVSELPSSVIHKDDLELKEKDQKKPPTAPREVKGTRRKLPTAFLPSKYHGYEELLTAKPDPAFIEPKGIQKNAQALQQMLKHPLLCHSSKPKLDTLQKPYVHKEKRVLSCTSGQNGGW	not soluble
MGSDKIHHHHHHMQLKPLLRQLATTFEVTVDPTFTHNPEVTHVQFVDPTEALASHRLYLSPDSSQLVQLTYSWHGHRQSVGLVNLGTGLTTIIAAQNQLLKLLMTLGQCLHHDVQIQAAINQLAIQAITADFDTTLAQAVRLLENPLAIIDLNGEILTRSHTTQLNGTSIHAAVETNRVGRWLLDHGFAPDTPDFLTQVYVAEDQLSAGPMLITPLANGTEPLGYLVMPALNKPLNDRQALLINSIGQVIAGSLVKNQIMPTAESQRDRLLNLLLTEHQGGTFADQFAEQHVQLPTAMVLIRCEPLADQAPMILQQRLQYLMMPRFKQVLVSTYQQQCVALIPISLVAYNQNQFKLTLQQITKQADCRLIVSQHYVNPEDTFAAYTVCERTAQLKTGRGRVIFCEDQFYNLALARVNHLEILPFFINPALRLLLAYDQQNHTELVPTLDVYLRATCNLTRTAKQLYVHPNTLRNRLHHITTLTGCDLRDAETCFKLAASFKLRQFLTQHQYQYRPDIPIPTQD	not soluble
MGSDKIHHHHHHVSKILIIYSSVHGQTRKLCDFMQRELEALEHSVTCASIDNPPAMEGFDKIVLGASIRHGKHNPRVYDFIRENIKVLQEKASSFFSVSLVARKPAKNTPETNPYMQAFLAKSPWQPKLLAVFGGNLDYQGYNALDRNIIRFIMWITKGPTAPDTKVEYTDWDKVKHYAQQVDAL	not soluble
SSPEYAMEGIFSVKSDVFSFGVLVLEIVSGKRNRGFHNSGQDNNLLGYTWENWKEGKGLEIVDSIIVDSSSSMSLFQPHEVLRCIQIGLLCVQERAEDRPKMSSVIVPFCTR	soluble
MNRWQRAWRHLCSTGWQARRQFPAAQLKRLERQIAESERAHRGQLRFVVESALDWRAAWRGMSARERALQWFGELRVWDTEDNTGVLVYLLLAERRIEIVADRGIHRLAPAGEWAGICADMQRAFAAGAHVEGLESGLRRIHALLLAHAPRNGEPFVNELPDQVVVRLEHHHHHH	not soluble
MAHHHHHHMMSVANAAYLPLIGSCLTAGEQTALQCSLPLLSQRYRGTPMQLWGKVTGIKANYWVAQAFPNGEFAPAVSFYSIDGGSTWTMLSELTEEQAALCEALRGPYQGVPSYEYMMRQDLPAETDEAAVTMPTPDDILKKAEDDIAAARAASDANSDADESEGDDEEQDDEEEEDEEDAGAVLAPRKRMAKFRILSVTEAMRLAHFVQLHDADCRLTVRGMYVLQDGAAVGARNSTFGGQPLHNAKKPSCYVKMARAGTEERNRILYGLTYNPHTDYLMPITDDAPAGVWSVKYNATANVVSVRNLFYEGSLFWYRPGTLECGQVYCGPGERNFDLCFML	soluble
MGSDKIHHHHHHMGNFHTMLDALLEDQEEAVLATIVQVEGSAYRKAGASMLFKKKGRRIGLLSGGCVEEDVFQRISALGDQLTSTLIPYDMRSEDDLSWGMGAGCNGIIHVHAERITQEKRRHYEKVRDCLHSGKAVTSVIKIESSHYLFLTENGHFGNWPDAPLQDIQRTVSTLHLPHFDQTTNMFIQRIEPKPRLILFGAGPDNVPLANLAADTGFSVIVTDWRPAYCTSSLFPYAYYLITAFPEQMLSEFQFFPHDAAVVATHHYQHDQTIINFLFSQNLHYIGLLGSANRTKRLLSGKHPPSHFYSPVGLKIGAEGPEEIAVSVVAEIIQTRKRVAVV	not soluble
GMHFSKEHINALETRTRAHFINSLSGFKSANLIGTQDRQGNTNLSIVSSVIHLGANPPLMGMIIRPHSVPRHTFENIMQTGLYTINHVNQSIYEQAHQTSARYDKDESEFEATGLTPEYLSDFCAPFVKESRLKYSVKLVEHQHLAINGTEFVIGEIVDVYVDDNAVQTDGFIDLQAIDTVAISGLDCYYTGDKLARLPYAKK	soluble
MGSDKIHHHHHHVETSASVMEPFLQLLRGNNLRWRSFGLTRQDGNVSETEAIPNPQDTVDTHPWGRYVAMGDSFTEGIGDPEPGSPGGHRGWADRVAEELSRGHSDFAYANLAVRGRLLEQIVDQQLAPCLALKPDLVTLSAGGNDLIRPGGDPDALAEKLDSVVHILSLGGATVVLFNGPDTGSSVLGRVRSKIAIYNENLRTVAARHDAVIADMWSLRQLSDPQMWDQDRLHFSPLGHHTIAAMVLDSLNIRHTLEPLSPKPLPQRSWREARSGDLVWAREYFVPWVVRRLRHQSSGDGVTAKRPTPGPVFGPGMPLGSGEAPGIEAEQR	not soluble
AHHHHHHGSGETLRIAFIYDVIYPWVKGGVERRLYEIAKRLAEKHEVHIYGYKHWDGKKIQEMNGIFYHGTIKPKKIYHGNRRAILPPIFHSINLLFLLKGQHLDIIDCQATPYFPCYASRVSNSNLVITWHEFWGNYWLKYLGRAGFFGKIIERGLFVLTDNHIAVSLKTKKDLYKAGLRKNIYVVPNGIDFEKIQEIKPSSYTSDIIFVGRLIKEKNVPLLLKALTIIKQDIPDVKAVVVGDGPEREYLEKLSFKLNLQDNVKFLGFLNRYEDVVALMKASKVFAFPSLREGFGIVVIEANASGLPVVTVEHEMNASKDLILEWKNGFIAKVNEKDFAEKILIALEKRKKMKKLSTEIARKYNWNEIVKKLERYYRWIA	soluble
GMWDETELGLYKVNEYVDARDTNMGAWFEAQVVRVTRKAPSRDEPCSSTSRPALEEDVIYHVKYDDYPENGVVQMNSRDVRARARTIIKWQDLEVGQVVMLNYNPDNPKERGFWYDAEISRKRETRTARELYANVVLGDDSLNDCRIIFVDEVFKIERPGE	soluble
MSLIRIDFSQLHQAREDAAAAMPSIAGKKILMGFWHNWPAGAADGYQQGSFANIALEDVPSEYNVVAVAFMKGRGIPTFQPYNLSDAEFRRQVGVLNAQGRAVLISLGGADAHIELHAGQEQALAAEIVRLVETYGFDGLDIDLEQSAIDLADNQRVLPAALKLVREHYAGQGKHFIVSMAPEFPYLHKNGKYVPYLQALEGVYDFIAPQYYNQGGDGLWVQEANGGKGAWIAQNNDAMKEDFLYYLTESLATGSRDFVRIPAQRLAIGLPSNVDAAATGYVIDPAAVSNAFRRLEAAGHAIKGLMTWSVNWDDGLNKRGERYNWEFRKRYASLIHDGEGGDQRPAAPQGLRLLERGETSLVLAWNASSGQRPIDYYSLYRDGAMVGQSAALGSTDSGLTADTRYSYFVTATDTQGNQSLPSEGLEVSTSGGAVDPQFPQWRENQAYRVDDGVTYEGLRYLCLQAHTSNSGWTPPVAFTLWREGGSHHHHHH	soluble
AALVSISVSPTNSTVAKGLQENFKATGIFTDNSNSDITDQVTWDSSNTDILSISNASDSHGLASTLNQGNVKVTASIGGIQGSTDFKVTQAALTSIEVSPTRTSIAKGLTQKFTAIGIFTDNSKKDITDQVTWNSSSAIVSVSNLDNNKGLGKTNSVGNTTITATLGKVSGNTWFTVVPAVLTSIQINPVNPSLAKGLTQKFTATGIYSDNSNKDITSAVTWFSSDSSIATISNAQKNQGNAYGAATGATDIKATFGKVSSPVSTLSVTAAKLVEIQITPAAASKAKGLTERFKATGIFTDNSNSDITNQVTWNSSNTDIAEIKNTSGSKGITNTLTPGSSEISAALGSIKSSKVILKV	not soluble
MAELRETLERLASFRPQNYYVSTLYLRLMPEDRQDNKYLRVYKDLVKKKEKDLENLNLDKEVLDSIRGDIKNIQDFLSDPKNLYNCRGIAIFSCSKLGLFEYVKLPYVYRNRLMFSPDPLVREIAAIDEEFGRVAVLLLDRKHIRYFLMDITGIEEKLDFLEPMTTRAHRFHSGGALLKGAEGTFQYRMPARGAAPNVVQHGMGEWRFHMRLREEWHRILKLASDALFEEWKRIHFDKLIIGGFIEEGLREIENFLHPYVKEKLVGYIEITPEEATPHQVWEKALDLLWQKDREQEKEIIKELEELKGWGLAVNGTSEVLEMLAIGNVRTLILPEDFEKPGYLCPQSHLAFLKPECPLPEEKPIPVSDVVDEALEEALDQRATIEVIIDKELQKKVDGLAAFLRFKL	not soluble
MTLRYEIFPVTPFRQNCTLIWDDESGEAVLTDVGGDVPFLLQALANRKLTLTAIWLTHGHLDHAGGVVEMLKTHKVPVLGPHPDDEFLLQSLPQTTAQYGFPVSPAFAPNRWLEEGETLTVGRYAFQVLHIPGHTPGHIVFYCAEAELLIAGDVLFYETIGRTDFPRGNHADLINNIRNKLFTLPETVQVVAGHGRMTSIGHEKRHNPFF	not soluble
MSRIEQLISDIESYIDNCKYYPLSNVKIIVNKEQLEDMLTELRLKTPDEVKKYQKILSNKDAILADAKEQADAIINAAQIQTEELINEHEIMQRAYAQANELIEQATAQAQTILDNATEEANSIRYGAMQYTDDMLAKLQYIIEHSIKDNKEKYDSLLSGLENVLSVVNNNRNELSGIEENSTEESADTDASNETDSQSDDEE	not soluble
TDAMSEEEIKIIINNSYNGGEINQTELAYMQNIFSFDERHAKDIMVPRTQMVTLNEPFNVDELLDTIKEHQFTRYPITEDGDKDHVKGFINVKEFLTEYASGKPIKIANYIHELPMISETTRISDALVRMQREHVHISLIIDEYGGTAGILTMEDILEEIVGEIRDEFDDDEVNDIVKLDDHTY	not soluble
FMAKLTSAVPVLTARDVAGAVEFWTDRLGFSRDFVEDDFAGVVRDDVTLFISAVQDQVVPDNTLAWVWVRGLDELYAEWSEVVSTNFRDASGPAMTEIGEQPWGREFALRDPAGNCVHFVAEEQD	soluble
RMLTDRRVHDADFLTDELGLTSLGLVNHQHHHSMKKQALNLNGGYHTHNDRTSSQAMKRV	not soluble
SAPAQEHPEATVLFSDIVGFTEIASRSSPLEVCSLLDELYQRFDAAIEEYPQLYKVETIGDAYMVVCNVTVPCDDHADVLLEFALRMHEEASRVASSLGEPVRIRVGMHSGPVVAGVVGRKMPRFCLFGDTVNTASRMESHGEAGQIHISEACYCCLRSKERFEIRERGNITVKGKGTMRTYLLSPLERT	soluble
MAHHHHHHMSWRTRVVRCPLQEPHNPFDMGRVMQRFWSPFCKGVKGPDLHTYGFGETFSGMRTHDSDFTCQVNGQVGGAKLVEDFFITLLCGFDFEHVKVERHLTTSGAADPCQFQGTIVLAHTRPFLGWCPQPVTHSLEKCPSPSECDATKVSTNNINELGNTTATASRCLVQTGGNTEAPVPSLILNVPFTARLEGNVGRISHMILRSPAIGVIAAHQCCPAEVGSCLQNPEALQALVTLRRANVRPEMITDRTLVGITAKKAAWCSALGIL	not soluble
MGHHHHHHSHLTTKEDVFDAIVTLKVRGAPAIGITAAFGLALAAKDIETDNVTEFRRRLEDIKQYLNSSRPTAINLSWALERLSHSVENAISVNEAKTNLVHEAIQIQVEDEETCRLIGQNALQLFKKGDRIMTICNAGSIATSRYGTALAPFYLAKQKDLGLHIYACETRPVLQGSRLTAWELMQGGIDVTLITDSMAAHTMKEKQISAVIVGADRIAKNGDTANKIGTYGLAILANAFDIPFFVAAPLSTFDTKVKCGADIPIEERDPEEVRQISGVRTAPSNVPVFNPAFDITPHDLISGIITEKGIMTGNY	not soluble
